Values of other authors in paper PMC4117426.
Read-outs that look alike come from different tables or passages of the source.

Assays:
[1] = biological target: FtsZ tail peptide C-terminal tail (Escherichia coli) (UniProt P0A9A6)
[2] = biological target: FtsZ tail peptide C-terminal tail (Escherichia coli) (UniProt P0A9A6); remark: listed apart in the source

Chain of FtsA (P0ABH0 whole entry): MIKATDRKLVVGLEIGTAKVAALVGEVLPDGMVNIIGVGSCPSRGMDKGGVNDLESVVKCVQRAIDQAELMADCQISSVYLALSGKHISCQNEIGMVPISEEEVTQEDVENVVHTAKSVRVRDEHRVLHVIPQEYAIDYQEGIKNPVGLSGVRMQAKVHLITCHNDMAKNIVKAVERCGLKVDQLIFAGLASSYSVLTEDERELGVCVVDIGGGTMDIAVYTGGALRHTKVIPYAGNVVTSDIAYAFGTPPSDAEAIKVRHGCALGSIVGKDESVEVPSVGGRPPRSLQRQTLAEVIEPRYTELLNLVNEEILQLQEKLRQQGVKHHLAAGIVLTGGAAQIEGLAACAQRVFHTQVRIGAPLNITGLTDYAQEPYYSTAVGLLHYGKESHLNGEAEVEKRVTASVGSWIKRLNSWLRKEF

Kd [1] [µM]	Kd [2] [µM]	Substance
50		FtsA (from UniProt P0ABH0)
	20	ZipA (from UniProt P77173)
